Key:
Type in all cases: in vivo, mouse
[1] = test system: aortas of LDLR−/− high fat fed mice; assay: Aortic expression of calcification related genes by real time RT-PCR; conditions: CKD mice, BMP-7, 3% CaCO3 or 3% LaCO3 treated
Procedure: Real Time Quantitative RT-PCR: Following reverse transcription performed as above, real time was performed using the MX 4000 (Strategene, La Jolla, Calif.), SYBR Green from Sigma (St. Louis) and the PCR kit from Invitrogen. Each reaction was performed in triplicate at 95° C., 45 sec, and 60° C., 30 sec, and 60 sec at 72° C. for 40 cycles. This was followed by a melt cycle, which consisted of stepwise increase in temperature from 72° C. to 99° C. […] Ct numbers (threshold values) were set within the exponential phase of PCR and were used to calculate the expression levels of the genes of interest. GAPDH was used as an internal standard and used to normalize the values. A standard curve consisting of the cT versus log cDNA dilutions (corresponding to the log copy numbers) was generated by amplifying serial dilutions of cDNA corresponding to an […] amount of amplicon.
Expression of calcification related genes. To relate the mechanism of phosphorus action detected in vitro to this model of CKD induced vascular calcification and hyperphosphatemia in vivo, the inventors of the instant invention analyzed aortic expression of the osteoblastic lineage genes including osterix message levels by real time RT-PCR. […] Data are expressed as the mean of the transcript levels relative to GAPDH expression in each aorta±SEM, N=3. […] (Hoffman 1994;Ducy P. et al., Mol Cell Biol 15:1858-1869, 1995)^32;41

[2] = test system: LDLR−/− mice with CKD on high fat diet; assay: Chemical quantitation of aortic calcium in high fat fed LDLR-/- mice with CKD (treatment study, weeks 22-28); conditions: therapy weeks 22-28 post natal; BMP-7 10 μg/kg IP weekly; CaCO3 or LaCO3 3% in diet (FIG. 1A, FIG. 2)
Text: At 10 weeks, animals were either continued on this chow diet or initiated on a high cholesterol (0.15%) diet containing 42% calories as fat [Harlan Teklad, Madison Wis., Product No. TD88137].
Induction of CKD: A two-step procedure was utilized to create uremia as previously described. (Davies 2003; Lund, 2004)^19;21 Saphenous vein blood samples were taken 1 week following the second surgery to assess baseline post-surgical renal function. Animals were sacrificed under anesthesia 28 weeks post natal. At the time of sacrifice, blood was taken by intracardiac stab, and the heart and aorta dissected en bloc. The BMP-7 treated group received intraperitoneal injection of BMP-7 10 μg/kg dry weight once weekly in 100 μl vehicle [mannitol (5% w/v), NaAcetate buffer (20 mM, pH 4.0-4.5), sterile water].
Group 1 were LDLR−/− mice on the high fat diet sacrificed at 22 weeks. Group 2 were LDLR−/− mice with CKD fed the high fat diet and treated weekly from 22 to 28 weeks with vehicle IP. […]
Chemical Calcification Quantitation: similar to our previous experimental plans (Davies 2003; Davies 2005).^19;20 Aorta and hearts were dissected at sacrifice, and all extraneous tissue removed by blunt dissection under a dissecting microscope. […]
Mice were treated with 10 mcg/kg BMP-7 injected intraperitoneally once weekly. […] The data are expressed as group mean±SEM, n=4-7.
The data are expressed as group mean±SEM, n=4-5.

[3] = test system: AV anastomosis NH lesion in mice; assay: Neointimal hyperplasia lesion formation at arteriovenous fistula anastomosis in CKD and sham mice
Text: Six weeks after creation of CKD and sham mice as described above, animals underwent an AV fistula creation by anastomosing the left common carotid artery to the jugular vein in an end-to-side fashion. Under a sterile condition, a vertical incision was made in the left neck with the left common carotid artery and the adjacent external jugular vein carefully dissected out. The common carotid artery clamp was placed at the proximal portion with an 11-0 nylon suture and the common carotid artery was divided just proximal to the bifurcation. Next, the jugular vein was clamped proximally and distally and punctured in the middle portion with a 27 G syringe. After filling this vein segment with heparinized saline, the venotomy of 0.7 mm in length was performed. […]
Three weeks after AV fistula creation, animals were euthanized, and the AV anastomoses were perfusion-fixed via the left ventricle at 100 mm Hg pressure as described previously (Leidenfrost J E, et al., Am J Pathol. 2003; 163(2):773-778).^53 Before perfusion fixation, blood was drawn from the left ventricle for the biochemical analysis. Blood urea nitrogen (BUN), phosphorus, and calcium were measured by autoanalyzer techniques in the Animal Facility Clinical Laboratory at Washington University in St. Louis, Mo. […]

B1: BMP-7: bone morphogenetic protein-7 (osteogenic protein-1), mineralization-countering morphogen; provided by Johnson and Johnson (protein, listed as Homo sapiens)
chain: STGSKQRSQNRSKTPKNQEALRMANVAENSSSDQRQACKKHELYVSFRDLGWQDWIIAPEGYAAYYCEGECAFPLNSYMNATNHAIVQTLVHFINPETVPKPCCAPTQLNAISVLYFDDSSNVILKKYRNMVVRACGCH
- CBFA1 expression in aorta ([1]; relative to GAPDH (FIG. 9B)): inhibited
- Osterix expression in aorta ([1]; relative to GAPDH (FIG. 9C)): inhibited
- Osteocalcin expression in aorta ([1]; relative to GAPDH (FIG. 9D)): inhibited
- aortic calcium (vascular calcification) versus the 22 week start point [2]: significant reduction of aortic calcification compared to the 22 week start point
- NH lesion formation induced by CKD ([3]; CKD animals, BMP-7 100 μg/kg intraperitoneally twice a week, P<0.01 (FIG. 12)): eliminated the stimulation of NH lesion formation induced by CKD
- NH lesion development ([3]; sham operated animals, BMP-7 100 μg/kg intraperitoneally twice a week (FIG. 12)): no effect

— patent US8741840B2, “BMP-7 for use in treating neointimal hyperplasia” (Washington University, priority 2008, dated 2014)
